Measured values: US12083109B2, “Neurokinin antagonists and uses thereof” (California Institute of Technology, priority 2017, dated 2024)
“Also recorded” adds a separate entry of the source. One block for each molecule: values may come before it.

Assays:
Nk3R = target: T1, Nk3R (Mus musculus, UniProt P47937); assay: Tone fear conditioning test (freezing to conditioned tone), osanetant; assay type: in vivo; set-up: from tissue; host or cells: Living mice (wild-type C57Bl6/N males, Charles River); conditions: osanetant daily during two-week isolation, tested off-drug
T1 sequence (P47937 1-452): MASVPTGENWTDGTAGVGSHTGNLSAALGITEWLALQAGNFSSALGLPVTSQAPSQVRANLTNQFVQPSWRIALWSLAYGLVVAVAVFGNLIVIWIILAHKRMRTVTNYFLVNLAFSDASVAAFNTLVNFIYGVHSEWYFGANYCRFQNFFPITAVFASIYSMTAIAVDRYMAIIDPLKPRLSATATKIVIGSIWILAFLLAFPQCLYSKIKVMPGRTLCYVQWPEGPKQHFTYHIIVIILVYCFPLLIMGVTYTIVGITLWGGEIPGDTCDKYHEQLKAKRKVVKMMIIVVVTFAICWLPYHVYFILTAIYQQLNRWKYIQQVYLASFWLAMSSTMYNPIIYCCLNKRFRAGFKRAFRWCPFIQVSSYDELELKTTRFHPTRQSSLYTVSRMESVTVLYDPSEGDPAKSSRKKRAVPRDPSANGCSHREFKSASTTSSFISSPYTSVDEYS

Tac2 [1] = assay: Looming disk assay, Tac2 shRNA knockdown; assay type: in vivo, mouse; conditions: SIS mice
Source text: (§1) Small hairpin RNA (shRNA) for the mouse Tac2 gene (NM_009312.2) were designed using the online designing tool siDirect 2.0 (http://sidirect2.mai.jp/) (Naito et al., 2009; incorporated by reference in its entirety).
(§2) 8-16 week old mice were anesthetized with isoflurane and mounted in a stereotaxic apparatus (Kopf Instruments). Anesthesia was maintained throughout surgery at 1-1.5% isoflurane. The skull was exposed and small burr holes produced dorsal to each injection site using a stereotaxic mounted drill. Virus was backfilled into pulled fine glass capillaries (˜50 μm diameter at tip) and pressure injections of 300 nl were made bilaterally into either the dBNSTa (AP +0.25, ML ±0.85, DV −4.1), DMH (AP −1.3, ML±0.35, DV −5.6), or CeA (AP −1.4, ML ±2.6, DV −4.73) at a rate of 30nl per minute using a nanoliter injector (Nanoliter 2000, World Precision Instruments) controlled by an ultra microsyringe pump (Micro4, World Precision Instruments). Capillaries remained in place for 5 minutes following injections to allow for full diffusion of virus and to reduce backflow up the injection tract. Skin above the skull was then drawn together and sealed with GLUture (Zoetis). For bilateral cannula implantations, single or double guide cannulas (custom, Plastics One) aimed 0.5 mm above each region were implanted and held in place with dental cement (Parkell). Compatible dummy cannulas with a 0.5 mm protrusion at the tip were inserted to prevent cannula clogging. Directly following surgery, mice were given a subcutaneous injection of ketoprofen (2 mg/kg) and supplied with drinking water containing 400 mg/L sulphamethoxazole and 200 mg/L ibuprofen and monitored for 7 days. Dummies were replaced every 2-3 days to keep cannula tracts clean. All injections were subsequently verified histologically.
Freezing behavior to presentation of an overhead looming disk proceeded as previously described (Kunwar et al., 2015; Yilmaz and Meister, 2013; incorporated by reference in their entirety). Briefly, mice were transported to a novel behavioral testing room. […] Behavior was recorded using a video recorder attached to a laptop equipped with video capture software (Corel VideoStudio Pro). Acute freezing behavior to the looming disk (“during”) as well as in the 30 seconds following the last disk (“post”) were scored manually (Behavior Annotator, MATLAB) by an observer blind to environmental conditions.
To further investigate a role for local Tac2 release in mediating different effects of SIS, we asked next whether Tac2 synthesis played a role in each of the three brain regions studied, via targeted shRNAi-mediated knockdown of Tac2. […] Injections were histologically verified by zsGreen fluorescence. […]

Tac2 [2] = assay: Tone fear test, Tac2 shRNA knockdown; assay type: in vivo, mouse; conditions: SIS mice
Source text: as §1, §2
The protocol for tone trace fear conditioning was performed as previously described (Cushman et al., 2014; incorporated by reference in its entirety) using fear conditioning boxes previously described in detail (Haubensak et al., 2010; Kunwar et al., 2015; incorporated by reference in their entirety). Briefly, mice were transported in squads of four on a white cart to a novel behavioral testing room containing 4 sound-attenuating fear-conditioning chambers (Med Associates). This “training context” was comprised of flat grid flooring (wired to a shock generator and scrambler for footshock delivery, Med Associates), houselights, and the presence of an internal fan for background noise. Chambers were sprayed with 70% Simple Green solution on the underlying chamber pan to generate a unique contextual scent and chambers were cleaned with 70% EtOH between squads. […]

persistent freezing to fear conditioned tone (Nk3R): prevented
Molecule: CC(=O)N(C)C1(c2ccccc2)CCN(CCC[C@]2(c3ccc(Cl)c(Cl)c3)CCCN(C(=O)c3ccccc3)C2)CC1 [osanetant, N-(1-{3-[(3R)-1-benzoyl-3-(3,4-dichlorophenyl)piperidin-3-yl]propyl}-4-phenylpiperidin-4-yl)-N-methylacetamide]

B1: shRNA-1: small hairpin RNA for mouse Tac2 gene (SEQ ID NO: 9, 10), expressed from AAV5-H1-shRNA-CMV-zsGreen (nucleic acid)
chain 1: CCGACGTGGTTGAAGAGAACACCGCTTCCTGTCACGGTGTTCTCTTCAACCACGTCTTTTTT
chain 2: AAAAAAGACGTGGTTGAAGAGAACACCGTGACAGGAAGCGGTGTTCTCTTCAACCACGTCGG
freezing to looming disk (acute, during stimulus) (Tac2 [1]; AAV shRNA in CeA): blocked | acute (during) freezing to looming disk (Tac2 [1]; AAV shRNA in dBNSTa): had no effect | persistent (post) freezing to looming disk (Tac2 [1]; AAV shRNA in dBNSTa): blocked; also recorded: strongly reduced | freezing to conditioned tone (Tac2 [2]; AAV shRNA in CeA): blocked | acute (during) freezing to conditioned tone (Tac2 [2]; AAV shRNA in dBNSTa): had no effect | persistent (post) freezing to conditioned tone (Tac2 [2]; AAV shRNA in dBNSTa): blocked; also recorded: strongly reduced

B2: shRNA-2: small hairpin RNA for mouse Tac2 gene (SEQ ID NO: 11, 12), expressed from AAV5-H1-shRNA-CMV-zsGreen (nucleic acid)
chain 1: CCGCCTCAACCCCATAGCAATTAGCTTCCTGTCACTAATTGCTATGGGGTTGAGGCTTTTTT
chain 2: AAAAAAGCCTCAACCCCATAGCAATTAGTGACAGGAAGCTAATTGCTATGGGGTTGAGGCGG
acute (during) freezing to looming disk (Tac2 [1]; AAV shRNA in dBNSTa): additionally reduced; also recorded: significantly reduced | acute (during) freezing to conditioned tone (Tac2 [2]; AAV shRNA in dBNSTa): additionally reduced; also recorded: significantly reduced
